Results on 1 molecule are retold here after patent publication KR20180079232A (dated 2018).

The assay addresses T1, L1CAM (L1 cell adhesion molecule, CD171), human (human, UniProt P32004 20-1257).
T1 construct: whole, on cells; The target sat on L1CAM-expressing cells (SCK-L1, Choi-CK, TFK-1); For the western blots it was the membrane protein fraction of those cells after SDS-PAGE; also called 막 L1CAM; membrane L1CAM
Kind of assay: confocal microscopy of L1CAM-expressing cells treated with Ab417 (10 ㎍/mL); surface-bound antibody detected with anti-human IgG.

T1 sequence (P32004 20-1257): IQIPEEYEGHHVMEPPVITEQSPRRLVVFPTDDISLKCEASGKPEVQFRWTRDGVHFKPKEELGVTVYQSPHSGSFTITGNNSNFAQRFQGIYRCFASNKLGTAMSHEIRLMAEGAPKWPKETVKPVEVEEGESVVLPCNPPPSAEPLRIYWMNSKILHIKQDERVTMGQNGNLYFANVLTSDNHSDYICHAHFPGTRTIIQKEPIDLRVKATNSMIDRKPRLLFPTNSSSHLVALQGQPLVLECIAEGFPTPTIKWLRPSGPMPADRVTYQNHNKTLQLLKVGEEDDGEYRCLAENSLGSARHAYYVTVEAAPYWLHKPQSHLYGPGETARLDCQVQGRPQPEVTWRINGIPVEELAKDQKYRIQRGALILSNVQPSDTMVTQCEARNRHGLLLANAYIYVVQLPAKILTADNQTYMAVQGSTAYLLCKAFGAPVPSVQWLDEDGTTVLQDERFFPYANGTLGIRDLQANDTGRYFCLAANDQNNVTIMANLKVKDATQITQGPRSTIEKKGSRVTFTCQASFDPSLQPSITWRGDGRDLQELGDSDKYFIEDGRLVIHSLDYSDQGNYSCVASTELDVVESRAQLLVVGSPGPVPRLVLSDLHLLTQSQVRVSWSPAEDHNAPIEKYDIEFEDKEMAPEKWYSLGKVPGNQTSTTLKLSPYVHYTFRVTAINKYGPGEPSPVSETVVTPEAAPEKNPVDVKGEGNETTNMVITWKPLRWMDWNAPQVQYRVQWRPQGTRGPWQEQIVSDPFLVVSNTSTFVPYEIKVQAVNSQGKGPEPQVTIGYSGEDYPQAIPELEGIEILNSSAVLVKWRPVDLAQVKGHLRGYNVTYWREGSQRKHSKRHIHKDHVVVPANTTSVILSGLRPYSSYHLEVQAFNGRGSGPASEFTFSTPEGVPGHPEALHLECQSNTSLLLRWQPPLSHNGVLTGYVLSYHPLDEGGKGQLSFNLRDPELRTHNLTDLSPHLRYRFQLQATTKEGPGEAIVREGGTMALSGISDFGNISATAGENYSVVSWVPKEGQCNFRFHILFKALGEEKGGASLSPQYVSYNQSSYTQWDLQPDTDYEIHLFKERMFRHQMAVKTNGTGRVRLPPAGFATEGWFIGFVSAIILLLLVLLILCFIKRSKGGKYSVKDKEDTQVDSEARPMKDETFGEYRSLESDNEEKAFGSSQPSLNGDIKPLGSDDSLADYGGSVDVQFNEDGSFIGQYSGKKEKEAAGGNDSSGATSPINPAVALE

B1: Ab417 항체 (anti-L1CAM antibody Ab417) (antibody, V domains shown)
VH: EVQLVESGGGVVQPGRSLRLSCAASGFTFSRFGMHWVRQAPGKGLEWVAFISNDGSNKYYADSVKGRFTISRDNSKNTLYLQMNSLRPEDTAVYYCARGRAYGSGSLFDPWGQGTLVTVSS
VL: DIQLTQSPSSLSASVGDRVTITCRASRTISIYVNWYRQRPGKAPESLIYAASNLHSGVPSRFSGSGSGTDFTLTISSLQPEDFATYYCQQSIGRGVVTFGQGTKLEIK
notes: It is a whole antibody made in CHO-DG44 cell line #9-20 and purified on protein A. It was detected with anti-human IgG (H+L) and anti-human IgG (Fc-specific)
Consider B1, for which the binding result is given as “binds”.
